This experiment deals with methanol dehydrogenase (MDH) of Bacillus brevis S1 strain (NCIMB No. 12524) (Bacillus brevis S1 strain).

Consider “methanol dehydrogenase activator YqkG of Bacillus subtilis (product of the yqkG / amd gene)”, for which the Activation ratio (%) of methanol dehydrogenase activity (Δ OD 340 nm/min, reduction of NAD+) turned out to be 250%.

The record behind these values is US6280972.
